Test results taken from publication doi:10.1101/2022.06.14.496144.

Tests used:
[1] = target: GlOCPX E25C mutant (Gloeobacter kilaueensis JS1); test: SEC
[2] = target: Gloeobacter kilaueensis JS1 Orange Carotenoid Protein clade X (GlOCPX), wild type (Gloeobacter kilaueensis JS1); test: SEC
[3] = target: Gloeobacter kilaueensis JS1 Orange Carotenoid Protein clade X (GlOCPX), wild type (Gloeobacter kilaueensis JS1); test: SEC-MALS

dimer/monomer ratio [1] [%]	dimer/monomer ratio [2] [%]	stoichiometry N [3]	Substance
25			GlOCPX E25C mutant (natural protein)
	5	2	Gloeobacter kilaueensis JS1 Orange Carotenoid Protein clade X (GlOCPX), wild type (natural protein)
